Reference: paper PMC3874162 (Nucleic Acids Research, 2013)

Assays:
SEC-MALS = target: the molecule itself; test: SEC-MALS
native gel or EMSA = target: the molecule itself; test: native gel or EMSA

Protein | stoichiometry N (SEC-MALS) | Kd (native gel or EMSA) [nM]
Cdc13 (full-length S. cerevisiae Cdc13) (natural protein, UniProt P32797 1-924, looked up) MDTLEEPECPPHKNRIFVSSSKDFEGYPSKAIVPVQFVALLTSIHLTETKCLLGFSNFERRGDQSQEDQYLIKLKFKDRGSERLARITISLLCQYFDIELPDLDSDSGASPTVILRDIHLERLCFSSCKALYVSKHGNYTLFLEDIKPLDLVSVISTISTKSTNSSKHSSSELISECDLNNSLVDIFNNLIEMNRDEKNRFKFVKLIHYDIELKKFVQDQQKVLSQKSKAAAINPFFVPNRLGIPYIESQNEFNSQLMTLNVDEPTTDISNMGEEMHDSADPIEDSDSSTTSSTGKYFSSKSYIQSQTPERKTSVPNNWHDDDSGSKRKRKLSFHSPNASSIRKAISYEQLSLASVGSVERLEGKIVGMNPPQFASINEFKYCTLKLYFTQLLPNVPDKVLVPGVNCIEIVIPTRERICELFGVLNCQSDKISDILLLEKPDRISVEVERILWDNDKTASPGMAVWSLKNISTDTQAQAQVQVPAQSSASIDPSRTRMSKMARKDPTIEFCQLGLDTFETKYITMFGMLVSCSFDKPAFISFVFSDFTKNDIVQNYLYDRYLIDYENKLELNEGFKAIMYKNQFETFDSKLRKIFNNGLRDLQNGRDENLSQYGIVCKMNIKVKMYNGKLNAIVRECEPVPHSQISSIASPSQCEHLRLFYQRAFKRIGESAISRYFEEYRRFFPIHRNGSHLAKLRFDEVKHEPKKSPTTPALAEHIPDLNADVSSFDVKFTDISSLLDSSARLPRPQQTHKSNTLYSCEGRIIAIEYHASDLCFHITNELPLLQTRGLAPERVLQLHIITSKNFAYFFNRSSAYLQRQPLEEKYTQLAQFLGHSFKFNITSSLTLFPDTTVALQIWCPIECTFRELQQQLAHPKVAAAPDSGSLDCAINATVNPLRLLAAQNGVTVKKEEDNDDDAGAVPTS | 2 | 5.1
Cdc13-MOB (middle OB-fold domain, residues 344-496) (domain or fragment, S. cerevisiae, UniProt P32797 344-496, looked up) KAISYEQLSLASVGSVERLEGKIVGMNPPQFASINEFKYCTLKLYFTQLLPNVPDKVLVPGVNCIEIVIPTRERICELFGVLNCQSDKISDILLLEKPDRISVEVERILWDNDKTASPGMAVWSLKNISTDTQAQAQVQVPAQSSASIDPSRT | 2 | –
